Assay [1] deals with recombinant human CD73 protein with C-terminal 6xHis tag (human) (UniProt P21589). The experiment in a line: SPR, Biacore T200, antibody captured on CM5 chip, human CD73 injected, 25 C, 1:1 fit.
The target is the same in assay [2]. As to the kind of experiment: cell-based or functional assay.
A further assay concerns the target T1, CD73 on A549 cells (UniProt P21589 27-549, limits assumed).
T1 sequence (looked up): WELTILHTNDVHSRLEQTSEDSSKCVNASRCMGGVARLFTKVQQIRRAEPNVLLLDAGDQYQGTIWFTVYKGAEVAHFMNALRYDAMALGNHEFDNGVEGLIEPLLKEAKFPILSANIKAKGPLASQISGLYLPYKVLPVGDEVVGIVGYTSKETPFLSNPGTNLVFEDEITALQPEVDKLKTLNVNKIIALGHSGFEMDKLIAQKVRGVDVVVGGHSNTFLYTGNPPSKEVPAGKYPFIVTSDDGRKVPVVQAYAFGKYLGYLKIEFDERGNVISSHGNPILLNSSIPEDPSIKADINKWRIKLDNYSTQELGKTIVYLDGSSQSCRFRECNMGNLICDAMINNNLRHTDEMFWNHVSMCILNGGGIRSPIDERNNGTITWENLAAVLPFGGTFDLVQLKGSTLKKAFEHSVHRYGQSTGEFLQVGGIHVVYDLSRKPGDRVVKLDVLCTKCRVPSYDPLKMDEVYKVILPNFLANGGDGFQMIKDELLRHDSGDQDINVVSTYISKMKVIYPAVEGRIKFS
The experiment in a line: cell-based or functional assay.

For assay [3], the target named is T2, recombinant human CD73 protein with C-terminal 6xHis tag (human, UniProt P21589 27-547, limits assumed).
T2 construct: also called Ecto-5'-nucleotidase
T2 sequence: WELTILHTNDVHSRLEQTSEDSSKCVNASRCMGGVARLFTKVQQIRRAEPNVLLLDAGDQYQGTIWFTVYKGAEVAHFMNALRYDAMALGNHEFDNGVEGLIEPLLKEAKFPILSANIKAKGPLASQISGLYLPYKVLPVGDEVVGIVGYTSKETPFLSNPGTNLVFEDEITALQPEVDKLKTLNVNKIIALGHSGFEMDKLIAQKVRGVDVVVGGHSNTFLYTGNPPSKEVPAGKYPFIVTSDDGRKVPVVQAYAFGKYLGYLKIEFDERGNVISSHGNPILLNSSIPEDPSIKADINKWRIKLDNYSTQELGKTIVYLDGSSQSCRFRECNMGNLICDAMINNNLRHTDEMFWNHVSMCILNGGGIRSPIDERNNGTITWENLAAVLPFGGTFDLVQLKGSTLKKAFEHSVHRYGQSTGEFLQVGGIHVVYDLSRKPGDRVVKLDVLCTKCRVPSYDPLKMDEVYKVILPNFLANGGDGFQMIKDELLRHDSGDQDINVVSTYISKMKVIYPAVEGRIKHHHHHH
As to the kind of experiment: SPR, Biacore T200, antibody captured by anti-mouse Fc IgG on CM5 chip, human CD73 injected, 25 C, 1:1 fit. On the procedure: Mouse Antibody Capture Kit, which is a commercialized reagent kit, was purchased from GE. Anti-mouse Fc IgG was fixated on a CM5 sensor chip by amine coupling in order to capture the antibody under test with the coupled anti-mouse Fc IgG. A series of human CD73 proteins having a predetermined concentration gradient were then injected, before samples were taken and tested with the pH 1.7 glycine-HCl regeneration testing chip that came with the reagent kit.
The binding constant (Ka), the dissociation rate constant (Kd), and the equilibrium constant (KD) were calculated with the Biacore T200 evaluation software by combining the model fitting data at a 1:1 ratio.

Assay [4] has as its target T2, recombinant human CD73 protein with …. As to the kind of experiment: cell-based or functional assay.

On to “MEDI-9447, anti-CD73 monoclonal antibody of MedImmune LLC”, for which, in assay [1], the Kd is 0.141 nM, the koff was determined as 3.91e-05 s⁻¹ and the kon is 278000 M⁻¹ s⁻¹. The EC50 (µg/mL), Biochemical level, inhibition of CD73 enzyme activity in assay [2] was determined as 0.0896 µg/mL. In the assay with CD73 on A549 cells, this molecule gave an EC50 (µg/mL), Cell level (A549), inhibition of CD73 enzyme activity of 0.032 µg/mL.

B1: anti-human CD73 monoclonal antibody 7-C10-Ba-C2 (antibody, V domains shown)
VH: EVQLQQSGPELVKPGASMKISCKASGYSFTGYTMNWVKQSHGKNLEWIGFITPYNGDTIYNQKFKGKATVTVDKSSSTAYMDLLSLTSEDSAVYYCAREGYDGGYFDYWGQGTTLTVSS
VL: DIQMTQSPASLSASVGETVTITCRASENIYSYLAWYQQKQGKSPQLLVYNTQTLAEGVPSRFSGSGSGTQFSLKINSLQPEDFGSYYCQHHYGTPMYPFGGGTKLEIK
notes: Mouse (BABL/c) hybridoma antibody purified from ascitic fluid; also called antibody of the present invention
In the case of B1, in assay [3], the Kd is 0.416 nM, the koff is 3.21e-05 s⁻¹ and the kon turned out to be 77200 M⁻¹ s⁻¹. In addition, the “EC50 (µg/mL), Biochemical level, inhibition of CD73 enzyme activity” value in assay [4] was found to be 0.106 µg/mL. Besides, in the assay with CD73 on A549 cells, the “EC50 (µg/mL), Cell level (A549), inhibition of CD73 enzyme activity” value is 0.0854 µg/mL.

The values above are taken from patent US20240368299A1 (JIANGSU KANION PHARMACEUTICAL, published 2024).
